Source: patent publication US11820827B2, “Methods of treating myelodysplastic syndrome and acute myeloid leukemia with nonfucosylated anti-CD70 antibodies” (Seagen Inc., priority 2019, dated 2023)

Assays:
[1] = tested on: T regulatory cells (Treg) in PBMCs; test: Treg depletion in PBMCs; format: cell-based, human; conditions: 24 hours
Description: At the end of the experiment cells were stained with Zombie Aqua Viability Dye and total viable Treg naïve and memory CD4 and CD8 T cell numbers were assessed. […] Fucosylated (WT Clone 13 IgG1) and nonfucosylated (SEA Clone 13 IgG1) antibodies targeting TIGIT were used as positive controls (FIG. 4E-4H).

hFcγRIIIa V158 = molecular target: T1, hFcγRIIIa V158 (Homo sapiens, UniProt P08637, F176V); test: BLI binding kinetics to high affinity FcγRIIIa (158V) receptor variant; conditions: versus SGN-70
T1 construct: made in house

[2] = tested on: NOMO-1 CD70+ AML cell line; test: ADCC assay with NK effector cells, NOMO-1; format: cell-based, human; conditions: effector-to-target ratio 10:1, 4 h
Description: ADCC activity was evaluated using two CD70+AML cell lines as an ADCC target (FIGS. 3A and 3B). The AML cell lines, MOLM-13 (FIG. 3A) and NOMO-1 (FIG. 3B), were labeled and mixed with titrations of test antibodies or isotype control. Effector cells were isolated from cryopreserved normal donor PBMC using the EasySep Human NK Cell Enrichment Kit (Stem Cell Technologies). Effector cells were added at an effector-to-target cell ratio of 10:1 with […]. After a 4-h incubation, the percent specific cell lysis was calculated.
AML cell lines were grown in appropriate growth medium while incubating at 37° C. in 5% CO2. Suspended cells were counted using ViCell XR cell counter. The required volume of cells was mixed with fresh growth medium and plated at seeding densities of 0.5 M/mL.
The following protocol was used to assess ADCC activity: • 1. Two vials of huPBMCs were thawed in the 37° C. waterbath and resuspended in 1% FBS-RPMI media. Cells were spun down and then NK cells were isolated using the EasySep human NK cell enrichment kit following the manufacturer's protocol. • 2. […] Absorbance per well was measured using the SpectraMax 190 plate reader at 490 nm and the acquired values were converted to text file and exported to Excel and into GraphPad Prism for further data analysis. • 9. […]

[3] = tested on: MOLM-13 CD70+ AML cell line; test: CDC with normal human serum, MOLM-13; format: cell-based; conditions: normal human serum not heat inactivated
Description: (§1) AML cell lines positive for CD70 were fluorescently labeled and treated with increasing concentrations of CD70 directed antibodies. Cells were then exposed to human compliment and lysis determined as release of fluorescent dye.
(§2) The following protocol was used to assess CDC activity on AML cell lines: • 1. Cells were incubated with […] anti-CRP monoclonal antibodies mix (anti-hCD46, anti-hCD55, anti-hCD59) for 30 minutes on ice. • 2. Cells were washed and plated (200,000 cells/well) in media containing non-heat-inactivated serum, Sytox Green (Life technology), and antibodies, which were added at the indicated final concentration, for 2 hours at 37° C. • 3. Cell dead was quantified by detecting Sitox Green fluorescent signal on an Envison plate reader (Perkin Elmer) and normalized over positive control (1% Triton X-100 treated cells).

MV4-11 AML xenograft [4] = test: Tumor growth in the MV4-11 AML xenograft model, SEA-CD70 and azacitidine (Example 10); format: in vivo, SCID mice
[5] = tested on: NOMO-1 CD70+ AML cell line; test: CDC with normal human serum, NOMO-1; format: cell-based; conditions: normal human serum not heat inactivated
Description: as §1, §2

MV4-11 AML xenograft [6] = test: Tumor growth in the MV4-11 AML xenograft model, SEA-CD70, azacitidine, venetoclax (Example 11); format: in vivo, SCID mice; conditions: antibody 10 mg/kg Q4dx5, azacitidine 2 mg/kg Q1dx5 3 cycles, venetoclax 25 mg/kg oral Q1dx21; comparisons at day 39
Source text: Tumor growth was reported as a volume and calculated as an average across animals within each treatment group (FIG. 11A). Immunocompromised SCID mice were implanted with 5×10e6 MV4-11 cells subcutaneously in the flank on day 0. When mean tumor size of 50 mm^3 (measured by using the formula: Volume (mm^3)=0.5*Length*Width^2, where the length is the longer dimension) was reached, mice were randomized into treatment groups of 10 mice per group. Stock concentrations of antibody and chemotherapy were diluted to the appropriate concentration and injected into animals at 10 μl/g of body weight. Tumor length and width, and animal weight were measured two times weekly throughout the study and tumor volume was calculated using the formula above. Animals were followed until tumor volume measured ˜1000 mm^3, at which time the animals were euthanized. Animals were dosed on various schedules based on treatment received; animals receiving antibody were treated with 10 mg/kg of antibody (Q4dx5), azacitidine-treated animals were dosed daily (2 mg/kg) for five consecutive days (Q1dx5) each week, for a total of 3 cycles (3 weeks); venetoclax was given at 25 mg/kg every day by oral gavage for 21 days consecutively (Q1dx21). Animal receiving combination of treatments received each treatment at the same dose and schedule as the single treatments.

T1 sequence (P08637 17-208 F176V): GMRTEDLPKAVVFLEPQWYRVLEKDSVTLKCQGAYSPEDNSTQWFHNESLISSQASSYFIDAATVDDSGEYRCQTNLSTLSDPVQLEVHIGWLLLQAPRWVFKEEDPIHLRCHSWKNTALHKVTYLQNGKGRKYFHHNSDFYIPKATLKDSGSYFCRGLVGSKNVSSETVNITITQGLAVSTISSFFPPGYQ

B1: SEA-CD70: humanized, nonfucosylated monoclonal IgG1 antibody targeting CD70 (nonfucosylated h1F6) (antibody, chains of the INN, looked up, V domains shown)
VH: QVQLVQSGAEVKKPGASVKVSCKASGYTFTNYGMNWVRQAPGQGLKWMGWINTYTGEPTYADAFKGRVTMTRDTSISTAYMELSRLRSDDTAVYYCARDYGDYGMDYWGQGTTVTVSS
VL: DIVMTQSPDSLAVSLGERATINCRASKSVSTSGYSFMHWYQQKPGQPPKLLIYLASNLESGVPDRFSGSGSGTDFTLTISSLQAEDVAVYYCQHSREVPWTFGQGTKVEIK
modifications: nonfucosylated
With B1 the “T regulatory cell depletion” value ([1]; donor homozygous for high affinity FcγRIIIa (V/V 158)) was “did not induce Treg cell depletion”, the “T regulatory cell depletion” value ([1]; donor homozygous for low affinity FcγRIIIa (F/F 158)) was “Neither CD70 targeting antibody induced T regulatory cell depletion” and the “increase in binding affinity for the FcγRIIIa (158V) receptor” value (hFcγRIIIa V158) was 8 fold. The “lysis of target cells in ADCC assay” value [2] was “induced lysis of two CD70 positive AML cell lines in a dose-dependent fashion”, the “cell lysis by complement fixation” value [3] was “lysed in an antibody-specific, dose-dependent manner” and the “effect on tumor growth” value (MV4-11 AML xenograft [4]; antibody 10 mg/kg Q4dx5, azacitidine 2 mg/kg Q1dx5 for 3 cycles) was “reduce tumor growth”. The “delay in tumor growth” value (MV4-11 AML xenograft [4]; from time to 10× fold change compared to untreated control) was 31%, the “cell lysis by complement fixation” value [5] was “lysed in an antibody-specific, dose-dependent manner” and the “effect on tumor growth” value (MV4-11 AML xenograft [6]) was “delay tumor growth”.
